Measured values: paper PMC10447908 (2023)

B1: Xiang-Liu 1 (designed binder)
chain: NDDELHMLMTDLVYEALHFAKDEEIKKRVFQLFELADKAYKNNDRQKLEKVVEELKELLERLLSEEDPCACESILKFEAKVEGLLQALTRKLEAVSGRLAVLENRIIDKEWILQKIYEIMRLLDELGHAEASMRVSDLIYEFMKKGDERLLEEAERLLEEVER
B2: Xiang-Liu 2 (designed binder)
chain: NDDELHMLMTDLVYEALHFAKDEEIKKRVFQLFELADKAYKNNDRQKLEKVVEELKELLERLLSEEDPCACESILKFEAKVEGLLQALTRKLEAVSGRLAVLENRIIQVQLVESGGGLVQAGGSLRLSCAASGRTFSNDALGWFRQAPRKEREFVAAINWNSGTYYADSVKGRFTISRDNAKNTVYLQMNSLKPEDTAVYSCAAASDYGLPREDFLYDYWGQGTQVTVSS

Experiments:
Experiment in all cases: FACS
[1] = target: SARS-CoV-2 Spike receptor binding domain, Wuhan (ancestral) variant (SARS-CoV-2, UniProt P0DTC2, biotinylated in vitro when needed)
[2] = target: SARS-CoV-2 Spike receptor binding domain, Delta variant (SARS-CoV-2, UniProt P0DTC2, biotinylated in vitro when needed)
[3] = target: SARS-CoV-2 Spike receptor binding domain, Omicron variant (SARS-CoV-2, UniProt P0DTC2, biotinylated in vitro when needed)

Binder	IC50 [1]	IC50 [2]	IC50 [3]
B1	9.3 nM	5.1 nM	36.4 nM
B2	12.6 nM	6.8 nM	5.2 nM
